B1: EPB41L3 (parent)
chain: SDYISEFRFAPNHTKELEDKVIEL

Variants of: B1
Assay: protein stability index of a GFP-peptide fusion (GPS, HEK-293T) (PSI 1-6); higher = more stable
Settings: c terminus: a fixed tail appended
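Also: lentivirally expressed fusions sorted by FACS into six bins by GFP to DsRed ratio, PSI derived from sequencing read proportions per bin multiplied by bin number.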

Variant	protein stability index
SDYISEFRFAPNHTKELEDLVIEL	2.28
SDYISEFRFAPNHTKELEDMVIEL	1.8
SDYISEFRFAPNHTKELEDFVIEL	2.31
SDYISEFRFAPNHTKELEDDVIEL	2.71
SDYISEFRFAPNHTKELEDSVIEL	2.3
SDYISEFRFAPNHTKELEDIVIEL	3.7
SDYISEFRFAPNHTKELEDWVIEL	1.4
SDYISEFRFAPNHTKELEDYVIEL	1.87
SDYISEFRFAPNHTKELEDNVIEL	1.87
SDYISEFRFAPNHTKELEDGVIEL	1.93
SDYISEFRFAPNHTKELEDPVIEL	2.2
SDYISEFRFAPNHTKELEDEVIEL	2.48
SDYISEFRFAPNHTKELEDQVIEL	1.89
SDYISEFRFAPNHTKELEDHVIEL	1.79
SDYISEFRFAPNHTKELYDKVIEL	1.77
SDYISEFRFAPNHTKELSDKVIEL	2.32
SDYISEFRFAPNHTKELLDKVIEL	1.77
SDYISEFRFAPNHTKELWDKVIEL	1.56
SDYISEFRFAPNHTKELDDKVIEL	1.49
SDYISEFRFAPNHTKELNDKVIEL	1.81
SDYISEFRFAPNHTKELCDKVIEL	1.44
SDYISEFRFAPNHTKELRDKVIEL	2.34
SDYISEFRFAPNHTKELTDKVIEL	1.73
SDYISEFRFAPNHTKELQDKVIEL	2.42

Variant	protein stability index
SDYISEFRFAPNHTKELADKVIEL	2.05
SDYISEFRFAPNHTKELKDKVIEL	2.08
SDYISEFRFAPNHTKELIDKVIEL	2.19
SDYISEFRFAPNHTKELVDKVIEL	2.07
SDYISEFRFAPNHTKELMDKVIEL	1.8
SDYISEFRFAPNHTKELFDKVIEL	1.8
SDYISEFRFAPNHTKELPDKVIEL	1.47
SDYISEFRFAPNHTKELHDKVIEL	2.77
SDYISEFRFAPNHTKELGDKVIEL	2.53
SDYISEFRFAPNHTKELEDKVIAL	1.9
SDYISEFRFAPNHTKELEDKVIDL	2.01
SDYISEFRFAPNHTKELEDKVIFL	3.17
SDYISEFRFAPNHTKELEDKVICL	1.38
SDYISEFRFAPNHTKELEDKVGEL	2.79
SDYISEFRFAPNHTKELEDKVNEL	2.74
SDYISEFRFAPNHTKELEDKVMEL	2.31
SDYISEFRFAPNHTKELEDKVFEL	1.74
SDYISEFRFAPNHTKELEDKVLEL	2.28
SDYISEFRFAPNHTKELEDKVSEL	3.18
SDYISEFRFAPNHTKELEDKVQEL	2.92
SDYISEFRFAPNHTKELEDKVREL	3.03
SDYISEFRFAPNHTKELEDKVTEL	2.56
SDYISEFRFAPNHTKELEDKVWEL	2.45
SDYISEFRFAPNHTKELEDKVEEL	2.94

Variant	protein stability index
SDYISEFRFAPNHTKELEDKVCEL	2.19
SDYISEFRFAPNHTKELEDKVVEL	2.58
SDYISEFRFAPNHTKELEDKVKEL	2.51
SDYISEFRFAPNHTKELEDKVHEL	2.55
SDYISEFRFAPNHTKELEDKVAEL	3.26
SDYISEFRFAPNHTKELEDKVDEL	2.88
SDYISEFRFAPNHTKELEDKVYEL	2.29
SDYISEFRFAPNHTKELEDKVPEL	2.58
SDYISEFRFAPNHTKELEIKVIEL	2.71
SDYISEFRFAPNHTKELEKKVIEL	1.89
SDYISEFRFAPNHTKELEHKVIEL	1.86
SDYISEFRFAPNHTKELEMKVIEL	2.03
SDYISEFRFAPNHTKELEWKVIEL	3.08
SDYISEFRFAPNHTKELEYKVIEL	1.36
SDYISEFRFAPNHTKELENKVIEL	1.79
SDYISEFRFAPNHTKELERKVIEL	1.39
SDYISEFRFAPNHTKELEFKVIEL	3.65
SDYISEFRFAPNHTKELEAKVIEL	1.49
SDYISEFRFAPNHTKELELKVIEL	2.69
SDYISEFRFAPNHTKELESKVIEL	2.81
SDYISEFRFAPNHTKELETKVIEL	1.8
SDYISEFRFAPNHTKELEEKVIEL	1.77
SDYISEFRFAPNHTKELEPKVIEL	2.19
SDYISEFRFAPNHTKELECKVIEL	2.02

Variant	protein stability index
SDYISEFRFAPNHTKELEQKVIEL	1.71
SDYISEFRFAPNHTKELEGKVIEL	2.06
SDYISEFRFAPNHTKELEVKVIEL	2.09
SDYISEFRFAPNHTFELEDKVIEL	2.15
SDYISEFRFAPNHTYELEDKVIEL	1.63
SDYISEFRFAPNHTWELEDKVIEL	1.77
SDYISEFRFAPNHTIELEDKVIEL	1.9
SDYISEFRFAPNHTVELEDKVIEL	2.04
SDYISEFRFAPNHTNELEDKVIEL	2.12
SDYISEFRFAPNHTQELEDKVIEL	2.34
SDYISEFRFAPNHTSELEDKVIEL	2.07
SDYISEFRFAPNHTAELEDKVIEL	1.9
SDYISEFRFAPNHTPELEDKVIEL	2.29
SDYISEFRFAPNHTRELEDKVIEL	1.74
SDYISEFRFAPNHTLELEDKVIEL	1.75
SDYISEFRFAPNHTCELEDKVIEL	2.25
SDYISEFRFAPNHTHELEDKVIEL	1.97
SDYISEFRFAPNHTGELEDKVIEL	2.1
SDYISEFRFAPNHTMELEDKVIEL	2.25
SDYISEFRFAPNHTDELEDKVIEL	2.49
SDYISEFRFAPNHTTELEDKVIEL	2.1
SDYISEFRFAPNHTEELEDKVIEL	3.46
